Source: patent publication US20100285131A1

Molecular target: β-Klotho overexpressed in recombinant human 293T kidney cells
Assay: cell-based or functional assay

| Substance | EC50 (nM), ELK-luciferase | Efficacy, ELK-luciferase |
| --- | --- | --- |
| MKEDD-hFGF21-(L15)-hFc (Fc fusion) | 834 nM | 83.1% |
| hFc-(L15)-hFGF21(1-178, L98R, P171G) (Fc fusion) | 167 nM | 63.9% |
| hFc-(L15)-hFGF21(L98R, P171G, 1-179) (Fc fusion) | 7.8 nM | 77.4% |
| hFc-(L15)-hFGF21(L98R, P171G, A180P) (Fc fusion) | 617 nM | 77.1% |
| hFc-(L15)-hFGF21(L98R, P171G, GGGGG182-6) (Fc fusion) | 4310 nM | 99.7% |
| hFc-(L15)-hFGF21(L98R, P171G, S181A) (Fc fusion) | 2.66 nM | 73.5% |
| hFc-(L15)-hFGF21(L98R, P171G, S181G) (Fc fusion) | 3.43 nM | 77.3% |
| hFc-(L15)-hFGF21(L98R, P171G, S181K) (Fc fusion) | 130 nM | 87.9% |
| hFc-(L15)-hFGF21(L98R, P171G, S181L) (Fc fusion) | 3.46 nM | 72.6% |
| hFc-(L15)-hFGF21(L98R, P171G, S181P) (Fc fusion) | 33.8 nM | 79.5% |
| hFc-(L15)-hFGF21(L98R, P171G, S181P, P182) (Fc fusion) | 272 nM | 69.9% |
| hFc-(L15)-hFGF21(L98R, P171G, S181T) (Fc fusion) | 3.07 nM | 77.6% |
| hFc-(L15)-hFGF21(L98R, P171G, Y179G) (Fc fusion) | 61 nM | 82.6% |
| hFc-(L15)-hFGF21(L98R, P171G, Y179P) (Fc fusion) | 428 nM | 44.4% |
